Here are results for 30 sequences from the nanobody polyreactivity screen of Harvey et al. (2022).

The series is described as follows: yeast display, Sf9 membrane polyspecificity reagent, FACS + sequencing; frameworks hold sequencing errors. A digest of the protocol:
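Sorting gates, low and high (top ~1%), were placed on anti-HA fluorescence to track expression and on streptavidin fluorescence to track reagent binding. A clone's polyreactivity label is taken from the gate it came out of. The reagent was 10% biotinylated, detergent-solubilized Sf9 membrane, applied for 1 hour at 4 °C to galactose-induced yeast display cells.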
Turning to “QVQLVESGGGIVQAGGSLRLSCAASGRSFGIYAMGWYRQAPGKERELVAGITRGDRTFAYSVKGRFTISRDNAKNTVYLQMNSLKPEDTAVYYCNADVYPYKLALPAGMGYWGQGTQVTVSS”, the “polyreactivity (PSR sort gate)” value was “high polyreactivity”.

Regarding “QVQLVESGGGIVQAGGSLRLSCAASGRTFAYYAMGWYRQAPGKERELVAAIDSSGGSTYYADSVKGRFTISRDNAKNTVYLQMYSLKPEDTAVYYCAASYPYDRYDQGGYGYWGQGTQVTVSS”, the “polyreactivity (PSR sort gate)” value is “low polyreactivity”.

As to “QVQLVESGGGIVQAGGSLRLSCAASGRTFNFYAMGWYRQAPGKERELVAAIRKSGASTYYADSVKGRFTISRDNAKNTVYLQMNSLKPEDTAVYYCAADGQVSYALGFDYWGQGTQVTVSS”, the “polyreactivity (PSR sort gate)” value is listed as “high polyreactivity”.

On to “QVQLVESGGGIVQAGGSLRLSCAASGRTFQLYAMGWYRQAPGKERELVAAITRGGSTKYADSVKGRFTISRDNAKNTVYLQMNSLKPEDTAVDYCAAKFSSYWSRFGYWGQGTQVTVSS”, for which the “polyreactivity (PSR sort gate)” value is “high polyreactivity”.

With “QVQLVESGGGIVQAGGSLRLSCAASGRTFQPYAMGWYRQAPGKERELVAAITSIGGSTFYADSVKGRFTISRDNAKNTVYLQMNSLKPEDTAVYYCARRGYYRSKWERDYWGQGTQVTVSS”, the “polyreactivity (PSR sort gate)” value is recorded as “low polyreactivity”.

As to “QVQLVESGGGIVQAGGSLRLSCAASGRTFSTYAMGWYRQAPGKESELVARITSSGGSTYYADSVKGRFTISRDNAKNTVYFQMNSLKPEDTAVYYCAARPLVRYRMQWTGGYYYWGQGTQVTVSS”, the “polyreactivity (PSR sort gate)” value was “high polyreactivity”.

“QVQLVESGGGIVQAGGSLRLSCAASGRTFYDYAMGWYRPAPGKERELVAAISRRAGSTYYADSVKGRFTISRDISKNSVYLQMISLNPEDTAVYFCAAAYSRRWWRGHHYAFDYWGQGTQVTVSS”: the “polyreactivity (PSR sort gate)” value is reported as “high polyreactivity”.

For the sequence “QVQLVESGGGIVQAGGSLRLSCAASGRTLQIYAMGRYRQAPGKERELVAAISSSGGSTYYADSVKGRFTISRDNEKNTVYLQMNSLKPEDTAVYYCAVDGYGYKDDYWGQGTQVTVSS”, the “polyreactivity (PSR sort gate)” value is on record as “high polyreactivity”.

On to “QVQLVESGGGIVQAGGSLRLSCAASGRTLSKNAMGWYRQAPGKERELVATISSVGRTNYADSVKGRFTISRDNAKNTVYLQMNSLKPEDTAVYNCAARRFRGSYYWGQGTQVTVSS”, for which the “polyreactivity (PSR sort gate)” value was “high polyreactivity”.

As for “QVQLVESGGGIVQAGGSLRLSCAASGSIFDKNAMGWYRQAPGKERELVAAIDSGDTYYADSVKGRFTISRDNAKNTVYLQMNSLKPEDTAVYYCAADDVQYEYDYWGQGPQVTVSS”, the “polyreactivity (PSR sort gate)” value is listed as “low polyreactivity”.

With “QVQLVESGGGIVQAGGSLRLSCAASGSIFGGNALGWDRQAPGKERELVAAITWSGTSTYYADSVKGRFTISRDNAKNTVYLQMNSLKPEDTAVYYCNADYKSTDFRYSGSRNYWGQGTQVTVSS”, the “polyreactivity (PSR sort gate)” value is reported as “low polyreactivity”.

In the case of “QVQLVESGGGIVQAGGSLRLSCAASGSIFIDYAMGWYRQAPGKERELVAAISWRGGSTYYADSVKGRFTISRDNAKNTVFLQMIRLKPEDTAVYYCAGARRSKRHEYYLGQGTQVTVSS”, the “polyreactivity (PSR sort gate)” value is on record as “high polyreactivity”.

As to “QVQLVESGGGIVQAGGSLRLSCAASGSIFKRYAMGWYRQAPGKERELVAAISWSGGNTYYADSVKGRFTISRDNAKYTVYLQMNILKPEDTAVYYCNAGYSYFGPGRGRFRYYYWGQGTQVTVSS”, the “polyreactivity (PSR sort gate)” value is given as “high polyreactivity”.

“QVQLVESGGGIVQAGGSLRLSCAASGSIFRRNAMGWYRQSPGKEMEMVASISRGGSTYYADSVKGRFTISRDNAKNTVYLQMNSLKPEDTSVYYCNVVPRWLSWVPTTRRIGDDDYWGQGTQVTVSS”: the “polyreactivity (PSR sort gate)” value is reported as “high polyreactivity”.

As to “QVQLVESGGGIVQAGGSLRLSCAASGSILGYYVMGWYRQAPGIESELVAAISWSSGSTYYADSVKGRFTISRDNAKNTVYLQMNSLIPEDTAVYFCAAPIGDVYVGKGYDSWGQGTQVTVSS”, the “polyreactivity (PSR sort gate)” value was “low polyreactivity”.

As to “QVQLVESGGGIVQAGGSLRLSCAASGSILSTYAMGWYRQAPGKERELVDSISSNAGSTYYSDSVKGRFTISRDNAKNTVYLQMNSLKPEDSAVYYCNKVYGGGTYDYWGQGTQVTVSS”, the “polyreactivity (PSR sort gate)” value was “low polyreactivity”.

For the sequence “QVQLVESGGGIVQAGGSLRLSCAASGSIVGQYAMGWYRQPPGKERELVAAITSGGRTNYADSVTGRFTISRDNAKNTVYVQMNRLKPEDTAVYYCAARGWVWYYWGQGTQVTVSS”, the “polyreactivity (PSR sort gate)” value is given as “high polyreactivity”.

For “QVQLVESGGGIVQAGGSLRLSCAASGSTFGSYAMGWYRQAPGKVRELVAAIYRAGSTYADSVKGRFTISRDNAKYTVYFQMNSLKPEDTAVYYCAKRDNALYYGYDYWRQGTQVTVSS”, the “polyreactivity (PSR sort gate)” value was “low polyreactivity”.

Consider “QVQLVESGGGIVQAGGSLRLSCAASGSTFILNAMGWYRQAPGKERALVATISSSDTSTYYADSVKGRFTISRDNAKNTVYLQMNSLKPEDTAVYYCNADDYTTSYLQRVYHYGVEYYYWGQGTQVTVSS”, for which the “polyreactivity (PSR sort gate)” value was “low polyreactivity”.

With “QVQLVESGGGIVQAGGSLRLSCAASGSTFRAYVMGWSRPAPGKERELVAAITYRGTSTYYADSVKGRFTISRDNAKYTVYLQMNSLKPEDTAVYYCAARRLYTRGTYDYWGLGTQVTVSS”, the “polyreactivity (PSR sort gate)” value is reported as “high polyreactivity”.

On to “QVQLVESGGGIVQAGGSLRLSCAASGSTFVDNAMGWYRQAPGKERELVAAITTSVGSTYYADSVKGRFTISRDNAKNTVYLQMNSLKPEDTAVYYCAATVFSTYPYGYGSTFVRDDYWGQGTQVTVSS”, for which the “polyreactivity (PSR sort gate)” value is listed as “low polyreactivity”.

Turning to “QVQLVESGGGIVQAGGSLRLSCAASGSTFVTNVMGWYRQAPGKERELVAAISYSGGNTYYEDSVKGRFTISRDNANNTVYLHMNSLKPEDTAVYYCNAYRVVHPCEYDYWGQGTQVTVSS”, the “polyreactivity (PSR sort gate)” value was “high polyreactivity”.

Take “QVQLVESGGGIVQAGGSLRLSCAASGSTFWIYAMGWYRQAPGKERELVAAISWRGGRTYYADSVKGRFTISRDNAKNTVYLQMNSLKPQDTAVYYCNAQKRDGSMGYWGQGTQVTVSS”: the “polyreactivity (PSR sort gate)” value is reported as “high polyreactivity”.

For the sequence “QVQLVESGGGIVQAGGSLRLSCAASGSTIDKNAMGWYRQAPGKERELVAAINNGGGTTYYADSVKGRFTISRDNAKNTVFLQMNSLKPEDTAVYYCAAVGKAYWSDYQYRYYYWGQGTQVTVSS”, the “polyreactivity (PSR sort gate)” value is “low polyreactivity”.

“QVQLVESGGGIVQAGGSLRLSCAASGSTLEPNAMGWYRQAPGKERELVAAITIGGSTYYADSVKGRFTISRDNAKYTVYLQMNSLKPEDTAVYYCAAKSTVQRRRHTNYDYWGQGTQVTVSS”: the “polyreactivity (PSR sort gate)” value was “high polyreactivity”.

Regarding “QVQLVESGGGIVQAGGSLRLSCAASGSTLHSYALGWYRQAPGKERELVAAISFRGGSTYADSVKGRFTISRDNAKNTVYVQMNSLKPEDTAVYYCATRRTRADWYIVGYDYWGQGTQVTVSS”, the “polyreactivity (PSR sort gate)” value is reported as “low polyreactivity”.

On to “QVQLVESGGGIVQAGGSLRLSCAASGSTLTIYAMGWYRQAPGKERELVAAISRSGGRTYYADSVKGRFTISRDNAKNTVYLQMNSLKPEDTAVYYCATQPVRDRPGGSRKKYYYWGLGTQVTVSS”, for which the “polyreactivity (PSR sort gate)” value is “high polyreactivity”.

On to “QVQLVESGGGIVQAGGSLRLSCAASGYTFAKYAMGWYRQEPGKERELVAAISSSGGRTYYADSVKGRFTISRDIAKNTVYLQMNSLKPEDTAVYYCNAYGQRDYWGQGSQVTVSS”, for which the “polyreactivity (PSR sort gate)” value was “high polyreactivity”.

As for “QVQLVESGGGIVQAGGSLRLSCAPSGFIFRVYTMGWYRQAPGKERELVAAISYRGGRTYYADSVKGRFTISRDNAKNSVYLQMNILKPEDTAVYYCAAERVNREFDYWGQGTLVTVSS”, the “polyreactivity (PSR sort gate)” value was “high polyreactivity”.

Turning to “QVQLVESGGGIVQAGGSLRLSCDASGRIFTGNVMGWYRQAPGKERELVAAISRRGGGTYYADSVKGRFTISRDNAKNTVYLQMNSLIPEDTALYYCDAQYRSQGQPKGCVLYYYWVQGTQVTVSS”, the “polyreactivity (PSR sort gate)” value is reported as “high polyreactivity”.
